# Measured values as given in PMC11186766.
# How the values were obtained:
# [1] = target: full-length rat GluK2 kainate receptor (rat) (UniProt P42260); experiment: cryo-EM structure; time-resolved cryo-EM: purified GluK2 at 60 uM incubated with 500 uM BPAM344 for 20-30 min on ice, 90 uM succinylated concanavalin A added, 10 mM L-glutamate applied less than 3 s before plunge-freezing; 150 mM NaCl, 20 mM Tris-HCl pH 8.0, 0.05% digitonin
# [2] = target: succinylated concanavalin A; experiment: as above
Substance,stoichiometry N [1],stoichiometry N [2]
full-length rat GluK2 kainate receptor (from UniProt P42260 32-908),4,–
succinylated concanavalin A (natural protein),–,2
